Experimental data published in paper PMC8287922.
Where two headings read alike, the source gives them in different places.

How the values were obtained:
Test in all cases: EMSA
Pax7 PD-HD homodimer = Pax7 PD-HD homodimer (mouse (Mus musculus), UniProt P47239 35-273)
Pax7 HD = Pax7 HD (mouse (Mus musculus), UniProt P47239 215-273)
Pax7 PD-HD [1] = target: T1, Pax7 PD-HD (mouse (Mus musculus), UniProt P47239 35-273)
Pax7 PD-L = Pax7 PD-L (mouse (Mus musculus), UniProt P47239 35-215)
Pax7 PD = Pax7 PD (mouse (Mus musculus), UniProt P47239 35-158)
Pax7 PD, sequence (P47239 35-158): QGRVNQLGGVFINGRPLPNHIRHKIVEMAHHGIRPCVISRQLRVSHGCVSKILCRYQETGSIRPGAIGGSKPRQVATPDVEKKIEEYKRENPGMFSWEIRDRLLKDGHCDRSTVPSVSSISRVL

Pax7 PD-HD [2] = target: T1, Pax7 PD-HD; remark: listed apart in the source
Pax7 PD-HD [3] = target: T1, Pax7 PD-HD; remark: listed apart in the source
Pax7 PD-HD [4] = target: T1, Pax7 PD-HD; remark: listed apart in the source

T1 sequence (P47239 35-273): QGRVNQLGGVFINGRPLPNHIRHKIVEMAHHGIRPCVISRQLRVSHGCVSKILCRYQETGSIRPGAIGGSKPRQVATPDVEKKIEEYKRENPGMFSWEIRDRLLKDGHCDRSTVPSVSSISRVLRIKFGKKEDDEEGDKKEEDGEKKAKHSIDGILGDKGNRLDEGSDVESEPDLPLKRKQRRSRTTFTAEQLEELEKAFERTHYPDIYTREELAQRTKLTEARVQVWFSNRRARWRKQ
Pax7 HD, sequence (P47239 215-273): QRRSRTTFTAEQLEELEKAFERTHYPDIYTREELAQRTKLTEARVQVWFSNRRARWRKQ
Pax7 PD-HD homodimer, sequence (P47239 35-273): as the sequence (P47239 35-273) above
Pax7 PD-L, sequence (P47239 35-215): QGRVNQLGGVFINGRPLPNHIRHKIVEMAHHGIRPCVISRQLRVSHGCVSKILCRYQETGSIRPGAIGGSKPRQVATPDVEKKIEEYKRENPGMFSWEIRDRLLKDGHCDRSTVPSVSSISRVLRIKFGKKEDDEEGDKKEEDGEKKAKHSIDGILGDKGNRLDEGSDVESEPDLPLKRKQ

B1: H.I2 (dsDNA)
DNA 1: TCGACTCGTCCGCTAATTGATTATCCAACGACCTCGA
DNA 2: TCGAGGTCGTTGGATAATCAATTAGCGGACGAGTCGA
binding result (Pax7 PD-HD homodimer): binds | binding result (Pax7 HD): binds | binding result (Pax7 PD-HD [1]): binds

B2: PD (mutated HD) (dsDNA)
DNA 1: TCGACGCAGATCCGTGACGCCAGTTCCGACCTCGA
DNA 2: TCGAGGTCGGAACTGGCGTCACGGATCTGCGTCGA
binding result (Pax7 PD-L): binds | binding result (Pax7 PD): binds | binding result (Pax7 PD-HD [2]): binds

B3: Composite HP.E0 (dsDNA)
DNA 1: TCGACGCAGATCCGTGACTAATGTTCCGACCTCGA
DNA 2: TCGAGGTCGGAACATTAGTCACGGATCTGCGTCGA
binding result (Pax7 PD): binds | binding result (Pax7 PD-HD [3]): binds

B4: H.I-2 (dsDNA)
DNA 1: TCGACCAGATCGTCCGCTAATTACCAACGACCTCGA
DNA 2: TCGAGGTCGTTGGTAATTAGCGGACGATCTGGTCGA
binding result (Pax7 PD-HD [4]): binds | binding result (Pax7 HD): no binding

B5: HD (mutated PD) (dsDNA)
DNA 1: TCGACGCAGATCGTCCGCTAATTCCAACGACCTCGA
DNA 2: TCGAGGTCGTTGGAATTAGCGGACGATCTGCGTCGA
binding result (Pax7 HD): no binding
